Assay results as given in the supplement of paper PMC12667976.

B1: library; numbered along this chain (parent)
chain: MATDAALRRLLRLHRTEIAVAVDSAFPLLHALADHDVVPEDKFQETLHLKEKEGCPQAFHALLSWLLTQDSTAILDFWRVLFKDYNLERYGRLQPILDSFPKDVDLSQPRKGRKPPAVPKALVPPPRLPTKRKASEEARAAAPAALTPRGTASPGSQLKAKPPKKPESSAEQQRLPLGNGIQTMSASVQRAVAMSSGDVPGARGAVEGILIQQVFESGGSKKCIQVGGEFYTPSKFEDSGSGKNKARSSSGPKPLVRAKGAQGAAPGGGEARLGQQGSVPAPLALPSDPQLHQKNEDECAVCRDGGELICCDGCPRAFHLACLSPPLREIPSGTWRCSSCLQATVQEVQPRAEEPRPQEPPVETPLPPGLRSAGEEVRGPPGEPLAGMDTTLVYKHLPAPPSAAPLPGLDSSALHPLLCVGPEGQQNLAPGARCGVCGDGTDVLRCTHCAAAFHWRCHFPAGTSRPGTGLRCRSCSGDVTPAPVEGVLAPSPARLAPGPAKDDTASHEPALHRDDLESLLSEHTFDGILQWAIQSMARPAAPFPS

Variants of: B1
Experiment: AIRE transcriptional activation functional score (insulin promoter-GFP; nonsense median 0, synonymous median 1) (normalised score); higher = higher AIRE activity (more reporter activation)
Details: with insulin promoter-GFP reporter in HEK293
Experimental: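 Deep mutational scan of full-length human AIRE (codon-optimized cDNA, DT-POPCode NNN libraries over three regions) integrated at a Bxb1 landing pad in HEK293 cells carrying an insulin core promoter-GFP reporter at a Flp-In site. Cells were sorted for the top 10% GFP about 14 days after transfection. Variant frequency log-ratios (select vs non-select, TileSeq) were rescaled so that the nonsense median is 0 and the synonymous median is 1, then averaged over biological replicates.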

AIRE transcriptional activation functional score of substitutions, site by site:
C337: S 1.33 | M 0.956 | T 1.42 | R 1.12 | P 1.47 | H 1.85 | L 1.16 | F 0.845 | Q 1.5 | K 1.28 | Y 1.07 | V 1.13 | G 1.5 | A 1.51 | D 1.68 | N 1.53 | E 1.73 | W 0.733 | I 0.888
R336: D 1.73 | N 1.03 | S 1.04 | K 1.67 | F 1.13 | H 0.786 | M 0.49 | V 0.812 | W 0.655 | T 0.895 | A 1.02 | I 0.734 | Q 0.346 | L 0.658 | C 1.2 | G 1.33 | E 0.646 | P 1.38 | Y 0.141
C322: W 0.487 | Y 0.843 | V 0.9
G333: M 1.72 | N 0.719 | C 1.14 | V 1.05 | K 1.24 | F 1.02 | A 0.871 | R 1.08 | P 0.594 | S 0.365 | D 0.864 | Q 0.597 | I 0.774 | Y 1.26 | E 0.832 | W 1.82 | T 0.561 | L 1.17
P331: T 0.972 | A 1.19 | G 1.07 | M 1.35 | Y 1.08 | N 1.23 | W 1.26 | E 0.93 | D 1.29 | C 1 | Q 0.548 | R 1.41 | I 1.59 | K 0.702 | H 0.817 | V 1.21 | S 0.73 | F 0.62 | L 0.9
C340: N 1.67 | P 1.49 | V 1.42 | I 1.22 | T 1.71 | W 0.727 | K 1.62 | E 1.49 | F 0.877 | D 1.7 | M 1.61 | R 1.31 | G 1.44 | A 1.65 | Q 1.33 | L 1.13 | H 1.46 | S 1.52
P325: T 0.777 | C 1.04 | M 1.15 | G 1.1 | A 1.15 | R 0.876 | L 1.12 | F 1.01 | N 0.521 | S 1.21 | Y 1.18 | E 1.45 | Q 0.938 | W 0.913 | D 0.208 | V 0.965 | I 1.07 | H 0.387 | K 1.55
S339: V 0.99 | T 1.12 | M 0.1 | K 0.757 | G 0.951 | F 0.807 | R 1.11 | D 0.853 | Q 1.16 | C 0.985 | E 0.838 | L 0.775 | N 0.771 | P 1.13 | I 0.884 | A 1.13 | W 0.962 | Y 1.09 | H 1.27
L323: Q 1.35 | G 1.16 | E 1.47 | N 0.866 | D 1.16 | K 1.19 | A 1.11 | S 0.985 | M 1.8 | V 1.21 | P 1.33 | I 0.984 | F 1.5 | T 1.35 | W 1.42 | C 0.656 | Y 0.513 | R 1.15 | H 0.721
S332: R 1.04 | A 0.774 | K 0.518 | Q 0.542 | G 1.09 | W 1.41 | M -0.16 | N 1.56 | F 1.34 | L 1.17 | T 1.23 | E 0.387 | V 1.3 | I 0.887
